Assay results published in patent publication US20240132626A1 (Eli Lilly, published 2024).

Key:
Assay in all cases: SPR, captured via anti-human kappa, soluble ECD injected
[1] = molecular target: T1, Soluble human EGFR ECD protein (human, UniProt P00533 25-645)
T1 construct: extracellular domain; His-tagged

[2] = molecular target: T2, Soluble human HER-2 extracellular domain (ECD) protein (human, UniProt P04626 23-652)
T2 construct: extracellular domain; His-tagged

[3] = molecular target: T3, Soluble human cMet extracellular domain (ECD) protein (human, UniProt P08581 25-932)
T3 construct: extracellular domain; His-tagged
T3 sequence (P08581 25-932): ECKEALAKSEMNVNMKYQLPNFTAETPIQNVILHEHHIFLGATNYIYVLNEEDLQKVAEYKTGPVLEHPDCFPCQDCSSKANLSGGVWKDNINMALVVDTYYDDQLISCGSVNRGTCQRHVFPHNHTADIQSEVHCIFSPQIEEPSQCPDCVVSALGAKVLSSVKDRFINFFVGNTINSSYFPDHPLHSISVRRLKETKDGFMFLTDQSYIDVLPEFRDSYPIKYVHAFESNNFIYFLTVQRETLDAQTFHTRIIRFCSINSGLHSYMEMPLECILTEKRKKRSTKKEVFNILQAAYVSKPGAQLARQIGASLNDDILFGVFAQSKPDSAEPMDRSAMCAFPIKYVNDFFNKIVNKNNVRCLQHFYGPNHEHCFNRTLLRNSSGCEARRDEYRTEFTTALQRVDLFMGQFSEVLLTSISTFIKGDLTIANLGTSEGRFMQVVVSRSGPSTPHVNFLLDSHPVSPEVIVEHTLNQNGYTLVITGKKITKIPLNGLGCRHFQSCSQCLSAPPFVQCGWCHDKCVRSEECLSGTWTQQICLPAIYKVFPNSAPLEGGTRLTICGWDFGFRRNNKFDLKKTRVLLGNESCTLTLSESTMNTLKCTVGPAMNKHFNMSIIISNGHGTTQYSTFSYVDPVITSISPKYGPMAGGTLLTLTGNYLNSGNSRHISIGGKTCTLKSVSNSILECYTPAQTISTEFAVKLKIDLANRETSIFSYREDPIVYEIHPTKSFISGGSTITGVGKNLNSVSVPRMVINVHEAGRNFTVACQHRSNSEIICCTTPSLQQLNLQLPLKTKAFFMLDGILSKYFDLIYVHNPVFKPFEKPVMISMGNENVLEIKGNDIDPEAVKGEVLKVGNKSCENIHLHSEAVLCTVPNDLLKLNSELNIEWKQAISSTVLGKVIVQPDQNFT

| Kd [1] [nM] | koff [1] [s⁻¹] | kon [1] [M⁻¹ s⁻¹] | Kd [2] [nM] | koff [2] [s⁻¹] | kon [2] [M⁻¹ s⁻¹] | Kd [3] [nM] | koff [3] [s⁻¹] | kon [3] [M⁻¹ s⁻¹] | Binder |
| --- | --- | --- | --- | --- | --- | --- | --- | --- | --- |
| 13 | 0.0083 | 650000 | – | – | – | – | – | – | Matuzumab (antibody, V domains shown) VH: QVQLVQSGAEVKKPGASVKVSCKASGYTFTSHWMHWVRQAPGQGLEWIGEFNPSNGRTNYNEKFKSKATMTVDTSTNTAYMELSSLRSEDTAVYYCASRDYDYDGRYFDYWGQGTLVTVSS VL: DIQMTQSPSSLSASVGDRVTITCSASSSVTYMYWYQQKPGKAPKLLIYDTSNLASGVPSRFSGSGSGTDYTFTISSLQPEDIATYYCQQWSSHIFTFGQGTKVEIKG |
| 10 | 0.0085 | 850000 | 1.2 | 0.00027 | 230000 | 74 | 0.00025 | 3400 | HER-2 X EGFR X cMet TsAb_C_HL (other, Trispecific IgG-Fab antibody with Fabs from pertuzumab, matuzumab and MetMAb; the anti-cMet Fab is dually tethered at the C-terminus of the heterodimeric Fc) heavy 1: EVQLVESGGGLVQPGGSLRLSCAASGFTFTDYTMDWVRKAPGKGLEWVADVNPNSGGSIYNQEFKGRFTLSVDRSKNTLYLQMNSLRAEDTAVYYCARNLGPSFYFDYWGQGTLVTVSSASTKGPSVFPLAPSSKSTSGGTAALGCLVKDYFPEPVTVSWNSGALTSGVATGPAVLQSSGLYSLSSVVTVPSSSLGTQTYICNVNHKPSNTKVDKKVEPKSCDKTHTCPPCPAPEAAGGPSVFLFPPKPKDTLMISRTPEVTCVVVDVSHEDPEVKFNWYVDGVEVHNAKTKPREQYQSTYRVVSVLTVLHQDWLNGKEYKCKVSNKALPAPIEKTISKAKGQPREPQVSTLPPSREEMTKNQVSLMCLVYGFYPSDIAVEWESNGQPENNYKTTPPVLDSDGSFFLYSVLTVDKSRWQQGNVFSCSVMHEALHNHYTQKSLSLSPGKGGGGSGGGGSGGGGSGGGGSEVQLVESGGGLVQPGGSLRLSCAASGYTFTSYWLHWVRQAPGKGLEWVGMIDPSNSDTRFNPNFKDRFTISADTSKNTAYLQMNSLRAEDTAVYYCATYRSYVTPLDYWGRGTLVTVSSASTKGPSVFPLAPSSKSTSGGTAALGCLVADYFPEPVTVSWNSGALTSGVHTFPAVLQSSGLYSLSSVVTVPSSSLGTQTYICNVNHKPSNTKVDERVEPKSC light 1: RIQMTQSPSSLSASVGDRVTITCKASQDVSIGVAWYQDKPGKAPKLLIYSASYRYTGVPSRFSGSGSGTDFTLTISSLQPEDFATYYCQQYYIYPYTFGQGTKVEIKGQPKAAPSVTLFPPSSEELQANKATLVCYISDFYPGAVTVAWKADSSPVKAGVETTTPSKQSNNKYAAWSYLSLTPEQWKSHRSYSCQVTHEGSTVEKTVAPTEC heavy 2: QVQLVQSGAEVKKPGASVKVSCKASGYTFTSHWMHWVRYAPGQGLEWIGEFNPSNGRTNYNEKFKSKATMTVDTSTNTAYMELSSLRSEDTAVYYCASRDYDYDGRYFDYWGQGTLVTVSSASTKGPSVFPLAPCSKSTSGGTAALGCLVKDYFPEPVTVSWNSGALTSGVHTFPAVLQSSGLYSLSSVVTVPSSSLGTQTYICNVNHKPSNTKVDKKVEPDSGDKTHTCPPCPAPEAAGGPSVFLFPPKPKDTLMISRTPEVTCVVVDVSHEDPEVKFNWYVDGVEVHNAKTKPREEQYQSTYRVVSVLTVLHQDWLNGKEYKCKVSNKALPAPIEKTISKAKGQPREPQVYTLPPSRGDMTKNQVQLTCLVKGFYPSDIAVEWESNGQPENNYKTTPPVLDSDGSFFLASKLTVDKSRWQQGNVFSCSVMHEALHNHYTQKSLSLSPGKGGGGSGGGGSGGGGSGGGGSDIQMTQSPSSLSASVGDRVTITCKSSQSLLYTSSQKNYLAWYQQKPGDAPKLLIYWASTRESGVPSRFSGSGSGTDFTLTISSLQPEDFATYYCQQYYAYPWTFGQGTKVEIKRTVAAPSVFIFPPSDKQLKSGTARVVCLLNNFYPREAKVQWKVDNALQSGNSQESVTEQDSKDSTYSLISTLTLSKADYEKHKVYACEVTHQGLSSPVTKSFNRGEC light 2: DIQMTQSPSSLSASVGDRVTITCSASSSVTYMYWYQRKPGKAPKLLIYDTSNLASGVPSRFSGSGSGTDYTFTISSLQPEDIATYYCQQWSSHIFTFGQGTKVEIKRTVAAPSVFIFPPSKEQLKSGTASVVCLLNNFYPREAKVQWKVDNALQSGNSQESVTEQDSKDSTYSLSSTLTLSKADYEKHKVYACEVTHQGLSSPVTKSFNRGEC |
